Values quoted from earlier work as cited in US20090291133A1, “METHODS AND COMPOSTIONS FOR ENHANCING TRANSDERMAL DRUG DELIVERY” (NATIONAL HEALTH RESEARCH INSTITUTES, priority 2008, published 2009).
Where two headings read alike, the source gives them in different places.

Conditions: reported in US005534260A

B1: papain (protein, UniProt P00784 134-345, looked up)
Papain: IPEYVDWRQKGAVTPVKNQGSCGSCWAFSAVVTIEGIIKIRTGNLNEYSEQELLDCDRRSYGCNGGYPWSALQLVAQYGIHYRNTYPYEGVQRYCRSREKGPYAAKTDGVRQVQPYNEGALLYSIANQPVSVVLEAAGKDFQLYRGGIFVGPCGNKVDHAVAAVGYGPNYILIKNSWGTGWGENGYIRIKRGTGNSYGVCGLYTSSFYPVKN
notes: proteolytic enzyme used as permeability enhancer
Equivalent in solution
  safe concentration of papain: 4 µM
  safe concentration of papain: around 0.093 mg/ml
